Experimental findings from publication PMC6391921 are described below.

Test in all cases: BLI
Assay [1] deals with H3ssF_C, H3 stabilized HA stem ferritin nanoparticle, design C (influenza A virus A/Finland/486/2004 (H3N2) | not stated) (UniProt Q9ZLI1).
The target of assay [2] is H3ssF_H, H3 stabilized HA stem ferritin nanoparticle, design H (influenza A virus A/Finland/486/2004 (H3N2) | not stated) (UniProt Q9ZLI1).
Assay [3] deals with full-length H3 HA trimer (influenza A virus (H3)).

What is called Kd is the free concentration of one partner at which half of the binding sites on the other are occupied at equilibrium, for simple one-to-one binding. In general, koff refers to the first-order rate constant of dissociation. A higher koff goes with fast dissociation. A word on the kon: it is the second-order rate constant of association. A lower kon goes with slow association. As for CT149 Fab, in assay [1], the Kd is 21.3 nM, the koff amounted to 0.017 s⁻¹ and the on-rate (kon) was determined as 810000 M⁻¹ s⁻¹. Besides, in assay [2], the Kd was 22.2 nM, the koff was determined as 0.018 s⁻¹ and the kon was determined as 820000 M⁻¹ s⁻¹. For the same substance, in assay [3], the Kd came to 42.2 nM, the koff is 0.0032 s⁻¹ and the kon is 75000 M⁻¹ s⁻¹.
